The values that follow come from article doi:10.1101/2021.09.13.460021.

For experiment [1], the target named is biotinylated unmodified histone H3 peptide. Briefly: pull-down + far-Western, overlay or dot blot.
Experiment [2] deals with biotinylated histone H3K9me3 peptide. Kind of experiment: pull-down + far-Western, overlay or dot blot.

B1: GST tagged recombinant chromodomain (PfCD) of the chromodomain-containing protein PfCDP, wild type (domain or fragment)
chain: NEVFEVEKIIMARYKLNCKRKKNRKDENLDDFEFYIKWKNYDSDENTWEPFENLSPNLKGQARKVAL
Regarding B1, the dissociation constant Kd in experiment [1] was found to be 175 nM; in experiment [2], 38 nM.

A word on the Kd: it is the free concentration of one partner at which half of the binding sites on the other are occupied at equilibrium, for simple one-to-one binding.
